Consider 4 molecules from patent publication US20230227538A1 (University of California, published 2023).

The target in assay [1] is SARS-CoV-2 Spike protein on pseudotyped lentivirus (SARS-CoV-2, UniProt P0DTC2 14-1273). Briefly: cell-based or functional assay.
The target is the same in assay [2]. Briefly: cell-based or functional assay. The source holds these as a separate data set.
Assay [3] deals with T1, SARS-CoV-2 Spike receptor binding domain (RBD) (SARS-CoV-2, UniProt P0DTC2 319-541).
In assay [4] the target is T1, SARS-CoV-2 Spike receptor binding …. As to the kind of experiment: SPR, biotinylated RBD on a CAP chip.

Values joined by “and” are separate entries in the source; they are usually repeats but may differ in a detail not shown here. Equal values may be shown once.

B1: Nb11 (clone pNbCOV011A) (VHH)
VHH: HVQLVESGGGLVQAGGSLRLSCAVSGASAERVGWFRRAPGKEREFVAAIGANGGSTNYLDSVKGRFTISRDNAKNTVYLQMNSLKPQDTAVYYCAARNLETFDYTYWGRGTQVTVSS
For the molecule B1, the “IC50, inhibition of pseudovirus infection of ACE2 expressing HEK293T cells” value (“IC50, inhibition” below) in assay [1] was 2400 nM.

B2: mNb6-tri (trivalent mNb6 with a 20 amino acid linker) (VHH)
chain: QVQLVESGGGLVQAGGSLRLSCAASGYIFGRNAMGWYRQAPGKERELVAGITRRGSITYYADSVKGRFTISRDNAKNTVYLQMNSLKPEDTAVYYCAADPASPAYGDYWGQGTQVTVSSGGGGSGGGGSGGGGSGGGGSQVQLVESGGGLVQAGGSLRLSCAASGYIFGRNAMGWYRQAPGKERELVAGITRRGSITYYADSVKGRFTISRDNAKNTVYLQMNSLKPEDTAVYYCAADPASPAYGDYWGQGTQVTVSSGGGGSGGGGSGGGGSGGGGSQVQLVESGGGLVQAGGSLRLSCAASGYIFGRNAMGWYRQAPGKERELVAGITRRGSITYYADSVKGRFTISRDNAKNTVYLQMNSLKPEDTAVYYCAADPASPAYGDYWGQGTQVTVSS
Take B2: the “IC50, pseudovirus infection assay” value in assay [2] is 120 pM and 5 ng/mL.

B3: Nb6-tri (trivalent Nb6 with two 20 amino acid linkers) (VHH)
chain: QVQLVESGGGLVQAGGSLRLSCAASGIIFGRNAMGWYRQAPGKERELVAGITRRGSITYYADSVKGRFTISRDNAKNTVYLQMNSLKPEDTAVYYCAADPASPAPGDYWGQGTQVTVSSGGGGSGGGGSGGGGSGGGGSQVQLVESGGGLVQAGGSLRLSCAASGIIFGRNAMGWYRQAPGKERELVAGITRRGSITYYADSVKGRFTISRDNAKNTVYLQMNSLKPEDTAVYYCAADPASPAPGDYWGQGTQVTVSSGGGGSGGGGSGGGGSGGGGSQVQLVESGGGLVQAGGSLRLSCAASGIIFGRNAMGWYRQAPGKERELVAGITRRGSITYYADSVKGRFTISRDNAKNTVYLQMNSLKPEDTAVYYCAADPASPAPGDYWGQGTQVTVSS
As for B3, in assay [2], the “IC50, inhibition” value came out at 1.2 nM and the “fold enhancement of inhibitory activity against Nb6, pseudovirus” value is 2000 fold.

B4: Nb6 (AeroNab6, NbCOV6, clone pNbCOV006A) (VHH)
VHH: QVQLVESGGGLVQAGGSLRLSCAASGIIFGRNAMGWYRQAPGKERELVAGITRRGSITYYADSVKGRFTISRDNAKNTVYLQMNSLKPEDTAVYYCAADPASPAPGDYWGQGTQVTVSS
notes: also called AeroNab6 MASC monomer; Parent clone (NbCOV6)
B4 registered an EC50 in assay [3] of 190 nM. Moreover, in assay [2], the “IC50, inhibition” value was 2000 nM. Further, in assay [4], the Kd is 41 nM.
